Results taken from publication PMC2254190, “T Cell Receptor Engagement Triggers Its CD3ε and CD3ζ Subunits to Adopt a Compact, Locked Conformation” (PLoS ONE, 2008).

Target: SH3.1 domain of Nck (NMR work, in preparation) (UniProt P16333 2-61)
Test: not stated; affinity told in the discussion without method

Kd: ~100 nM
B1: CD3ε polypeptide (NMR work, in preparation) (domain or fragment)
chain: KNRKAKAKPVTRGAGAGGRQRGQNKERPPPVPNPDYEPIRKGQRDLYSGLNQRRI
modifications: The construct is not described (unpublished NMR work, 'in preparation'). The whole cytoplasmic tail, by UniProt topology, is used because it holds the PPS with its upstream and downstream charged …
